Data from PMC6740198 (Molecular Biology of the Cell, 2019).

Tests used:
[1] = target: acetylcholine receptor (AChR) (mouse (endogenous in C2C12 myotubes and mouse muscle)) (UniProt P04756); assay: pull-down
[2] = target: CD4-AChR β subunit MA loop chimera (UniProt P09690 333-469); assay: co-IP

B1: Flag-vezatin (natural protein, UniProt Q3ZK22 1-780, looked up)
chain: MTPEFDEEVVFENSPLYQYLQDLGHTDFEICSSSSPKPEKCLTTEGPQPPPTRVLQRQGILLKLTETIKSWTFSSQHSKKDDLLHKLDTGFRLDSLHTILQQEVLLQEDVELLELLDASILSAGQPQQESGHLPTLCSLATPNTWDVSLLFAFISLLIMFPTCWIVSSWLVWGIILFLYLIIRVLKLWRTAKLQMTLKKYRVRLEDMAANSRAFTNLVRKSLRLIQETEVISRGFTLVSAACSFNKAAQHPGQHLIGLRKAVYRTVRANFQAARLATLYMLKNYPLNSESDNVTNYICVVPFKELGLGLSEDQISEEEARNLTDGFSLPALKVLFQLWVAQSSEFFRRLALLLSTANSPSGPLLTAALLPHHILCDVTQGLPHAHSACLDELKRSYEFFRYFETQHQSVPQRLSKTPQKSRELSNVHTAVRSLQLHLKALLNEVIILEDELEKLVCTKETQELLSEAYPILEQKLKLIEPHVQASNSCWEEAISQVDKLLRRNTDKKGKPGVACENPHCTAEPLVRPALHIEDRDPIPEEQELEAYVDDIDIESEFRKDDFYHLSQEDRERQKREQEESRRVLQELKSVLGFKASEAERQKWKQLLFSDHAVLTSLSPVDPVESVSNSEPPMNSDTEKVNSNATEEETSKPCAGDKEDSRTEYVCDSPTEGPSKDTSADTGLLLPGAEETMCHQHESEAKSPQAAAAGATAPPTPRDTLQLSIKQRLARLQLPPEFTFSAGLAAEVAARSLSFTTMQEQTFGDEEEEQLVEGGENEVEEK
[1]
  fold increase in association in rapsn−/− against rapsn+/− muscle: 1.8 fold
  fold increase in association with agrin treatment (against untreated myotubes): 1.6 fold
[2]
  fold reduction of association when rapsyn-HA is coexpressed: 4 fold
